B1: CYP505A1: known sub-terminal fatty acid hydroxylase of medium chain fatty acids from Fusarium oxysporum, Seq ID No 8 (protein, listed as Fusarium oxysporum)
chain: MAESVPIPEPPGYPLIGNLGEFTSNPLSDLNRLADTYGPIFRLRLGAKAPIFVSSNSLINEVCDEKRFKKTLKSVLSQVREGVHDGLFTAFEDEPNWGKAHRILVPAFGPLSIRGMFPEMHDIATQLCMKFARHGPRTPIDTSDNFTRLALDTLALCAMDFRFYSYYKEELHPFIEAMGDFLTESGNRNRRPPFAPNFLYRAANEKFYGDIALMKSVADEVVAARKASPSDRKDLLAAMLNGVDPQTGEKLSDENITNQLITFLIAGHETTSGTLSFAMYQLLKNPEAYSKVQKEVDEVVGRGPVLVEHLTKLPYISAVLRETLRLNSPITAFGLEAIDDTFLGGKYLVKKGEIVTALLSRGHVDPVVYGNDADKFIPERMLDDEFARLNKEYPNCWKPFGNGKRACIGRPFAWQESLLAMVVLFQNFNFTMTDPNYALEIKQTLTIKPDHFYINATLRHGMTPTELEHVLAGNGATSSSTHNIKAAANLDAKAGSGKPMAIFYGSNSGTCEALANRLASDAPSHGFSATTVGPLDQAKQNLPEDRPVVIVTASYEGQPPSNAAHFIKWMEDLDGNDMEKVSYAVFACGHHDWVETFHRIPKLVDSTLEKRGGTRLVPMGSADAATSDMFSDFEAWEDIVLWPGLKEKYKISDEESGGQKGLLVEVSTPRKTSLRQDVEEALVVAEKTLTKSGPAKKHIEIQLPSAMTYKAGDYLAILPLNPKSTVARVFRRFSLAWDSFLKIQSEGPTTLPTNVAISAFDVFSAYVELSQPATKRNILALAEATEDKDTIQELERLAGDAYQAEISPKRVSVLDLLEKFPAVALPISSYLAMLPPMRVRQYSISSSPFADPSKLTLTYSLLDAPSLSGQGRHVGVATNFLSHLTAGDKLHVSVRASSEAFHLPSDAEKTPIICVAAGTGLAPLRGFIQERAAMLAAGRTLAPALLFFGCRNPEIDDLYAEEFERWEKMGAVDVRRAYSRATDKSEGCKYVQDRVYHDRADVFKVWDQGAKVFICGSREIGKAVEDVCVRLAIEKAQQNGRDVTEEMARAWFERSRNERFATDVFD
B2: CYP505An: CYP505 cytochrome P450 monooxygenase from Aspergillus niger, SEQ ID No 5 (protein)
chain: MKDAERIPGPKPLPVVGNLLDIDPEHGLQSIIAFADKYGPLFQITINGEKQIFATSQALVDELCDESRFHKAVVTGLEVLRLLAHDGLFTAYHGERGWGIAHRILVPAFGPLRIRNMLDDMSDVAQQLCLKWARQGGSTSINITEDFTRLTLDTIALCTMGFRLNSFYNNETMHPFVQSMLYVLKEADVQANLPGIANSIRVSAQRRMHKNIEAMRTMARGIIQERRKNKNPVDDILNTLLNGRDPVTGEGMSDDSIIDNVITFLIAGHETTSGLLSFTFYFLIQHPHILKKAQEEVDETVGLAQISAQHLAELPYIDAILKESLRLMPTAPGFAVTPKKTEVLGGKWMINAGQPVNVLLPACLRDQSVFGPDADEFHPERMLAENFSKLPPNSWKPFGNGERGCIGRAFAWQEAQLVVAMILQTFDLVPDDPSYQLRIKETLTIKPDGFRIRALLRRGQTATGLSRRSMLVARDGSSGESSNHLAEARGDHAPARGQPVSFFYGSNSGTCKALAHQLASNMMSRGYTTQKLAPLDNAVGNLPRDQPVIILTTTYDGQPTDDAKKFVAWLETGNVPSLQGISYAVFGCGHHDWTQTFYRIPILIDDLMHKAGATRLAPRGAANAAVSDLFSDLEAWEETSLLPALRENFLPSNSTDFDPLNPHQIQLSLSKPRRVDLHKGLIEAKVTAVRVLTSPDTPEKRHLEFCFQGDTSLRPGDHLNILPVNPPSTVSRVLAQFNLAPDYNITVNSFNTLGLPQATPVSASELFSSYVELCQPATRNNLKALIAATQSDPDKQELNRLYDSYEFIVRDKRVSVLDLLEQFPSISLPIAAFISMLPALRVRTYSLSMAPSFKPSHSSLTFSVINEPAWRGSGQHLGVASNYLASLTSGSIFYFSPRPAKESFHLPKDPSNTPIIMICAGSGLAPFLSFIQDRMVLKQQYKPLAKAFLFFGCRGRSLDDLYHEELSEFEAAGVVEIRRAYSKTPDFDIAKGCRYVQHRLVTEGQAILSLWSQNATIYVCGSTNMAKGVEAVLQNMLGPLPKERYVTEIF
modifications: Aspergillus niger

Experiments:
[1] = Biotransformation of hexadecanoic acid using CFE of E. coli, Tris-HCl buffer; assay type: biochemical
Protocol: (§1) Expression of genes in E. coli was performed by using ZYP-5052 auto-induction medium (Table 1) with in the case of the CYP 1 mM 5-aminolevulinic acid and 0.05 mM FeCl3 added. The CYP505E3 culture was cultivated using baffled flasks and incubated at 20° C. and 180 rpm for 24 h, while the GDH, and HLADH expressing cultures were all cultivated at 25° C. and 200 rpm for 24 h. Cultures were harvested through centrifugation (6 000×g, 10 min) and 1 g (wet weight) resuspended in 2 ml, 5 ml or 10 ml Tris-HCl, Phosphate or MOPS buffer, as indicated, (pH 8, 200 mM) containing 100 mM of glucose and glycerol. CFEs were obtained by a single passage of the suspended cells through a One Shot Cell Disrupter (Constant Systems) at 207 MPa. The soluble fraction was separated from unbroken cells by centrifugation (20 000×g, 20 min).
(§2) The biotransformation reaction mixture (BRM) consisted of CYP and GDH CFE suspensions prepared from cells in Tris-HCl buffers (1 g wet weight in 2 ml buffer) mixed in a 1:1 ratio with 0.1 mM NADPH added. Dodecanoic acid, tetradecanoic acid, hexadecanoic acid, 1-tetradecanol and 1-hexadecanol (20 μl of a 255 mM stock solution in DMSO) were added to 40 ml amber glass vials containing 1 ml BRM to give final substrate concentrations of 5 mmol·LBRM^−1. These vials were placed on an orbital shaker at 20° C., 200 rpm, oscillation amplitude 26 mm. Vials were removed after 24 h for extraction. Biotransformations were stopped by adding 170 ul of 0.5M HCl, extracted with 2×500 μl EtOAc and subjected to GC-MS analysis. A sample of δ-dodecalactone in ethyl acetate (0.1 mM) was also methylated with TMSH and subjected to GC-MS analysis.

[2] = Biotransformation of dodecanoic acid using CFE of E. coli, Tris-HCl buffer; assay type: biochemical; conditions: C12 fatty acid; CYP505A1 only tested in CFEs of E. coli
Protocol: as §1, §2

[3] = Biotransformation of tetradecanoic acid using CFE of E. coli, Tris-HCl buffer; assay type: biochemical
Protocol: as §1, §2

[4] = Biotransformation of 1-tetradecanol using CFE of E. coli, Tris-HCl buffer; assay type: biochemical; conditions: C14 alcohol; CYP505A1 only tested in CFEs of E. coli
Protocol: as §1
as §2, with “Vials were removed after 24 h for extraction. Biotransformations were stopped by adding 170 ul of 0.5M HCl, extracted with 2×500 μl EtOAc and subjected to GC-MS analysis. A sample of δ-dodecalactone in ethyl acetate (0.1 mM) was also methylated with TMSH and subjected to GC-MS analysis.” left out

[5] = Biotransformation of tetradecanoic acid to δ-dodecalactone by CYP505An expressed in Pichia pastoris; assay type: cell-based; conditions: 10 mM fatty acid, 12 h, acidified; via β-oxidation
Protocol: (§3) A transformant of Pichia pastoris KM71 harbouring the gene encoding CYP505An (SEQ ID No 5) was grown and harvested as described above. The harvested cells were resuspended 1 g in 40 ml of MOPS (200 mM, 100 mM glucose, 100 mM glycerol, pH 8) buffer and 12.5 ml was transferred to each of two 500 ml Erlenmeyer flask. One flask was supplemented with 250 μl of a 500 mM dodecanoic acid stock solution (in DMSO) and the other flask with 250 μl of a 500 mM tetradecanoic acid stock solution (in DMSO) to give in each case a final concentration of 10 mM of the fatty acid. The flasks were incubated at 25° C. and 180 rpm for 12 h. Samples (800 μl) were withdrawn after 12 h and 136 μl of 5 M HCl added. These samples were stored for 5-6 h at room temperature to convert hydroxy fatty acids to the lactone. These were then extracted with ethyl acetate (2×800 μl).

[6] = Biotransformation of dodecanoic acid to δ-dodecalactone by CYP505An expressed in Pichia pastoris; assay type: cell-based; conditions: 10 mM fatty acid, 12 h, acidified
Protocol: as §3

[7] = C16 fatty acid, GC-MS peak height
[8] = C14 fatty acid, CYP505A1 only tested in CFEs of E. coli

| Molecule | products identified from hexadecanoic acid (GC-MS, methylated samples) ([1]; 5 mmol/L substrate, Tris-HCl, 24 h) | other hydroxylase activities (in brackets) C16FA [1, 7] | ω-7 hydroxylase activity C16FA [1, 7] | other hydroxylase activities (in brackets) C12FA [2] | ω-7 hydroxylase activity C12FA [2] | products identified from tetradecanoic acid (GC-MS, methylated samples) ([3]; 5 mmol/L substrate, CFE of E. coli, Tris-HCl, 24 h) | other hydroxylase activities (in brackets) C14FA [3, 8] | ω-7 hydroxylase activity C14FA [3, 8] | ω-7 hydroxylase activity C14o [4] | δ-dodecalactone production from tetradecanoic acid [5] | δ-dodecalactone production from dodecanoic acid [6] |
| --- | --- | --- | --- | --- | --- | --- | --- | --- | --- | --- | --- |
| B1 | only sub-terminally hydroxylated products | (++) (++ 0.1 million < RA < 1 million) | − | (+++) (+++ 1 million < RA < 10 million) | − | only sub-terminally hydroxylated products | (++) (++ 0.1 million < RA < 1 million) | − | − |  |  |
| B2 |  |  |  |  |  |  |  |  |  | δ-dodecalactone was produced | δ-dodecalactone was produced |

Reference: patent publication US10975360B2, “Process for the modification of alkanes, fatty acids and fatty alcohols” (priority 2016, dated 2021)
